Bounds are passed on as bounds.

The target of this assay is human C5a receptor (C5aR) (human) (UniProt P21730). Kind of assay: cell-based or functional assay.
human C5a receptor (C5aR) (human), sequence (P21730 whole entry): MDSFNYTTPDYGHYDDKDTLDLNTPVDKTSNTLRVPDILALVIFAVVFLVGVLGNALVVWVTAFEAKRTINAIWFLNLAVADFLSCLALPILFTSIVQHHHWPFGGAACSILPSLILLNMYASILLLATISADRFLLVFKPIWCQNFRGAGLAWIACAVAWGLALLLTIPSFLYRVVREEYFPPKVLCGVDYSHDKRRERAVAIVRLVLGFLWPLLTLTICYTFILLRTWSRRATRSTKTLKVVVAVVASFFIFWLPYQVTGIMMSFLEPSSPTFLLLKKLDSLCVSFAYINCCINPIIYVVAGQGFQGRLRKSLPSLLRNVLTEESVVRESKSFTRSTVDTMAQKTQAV

For ADC-1004 (from UniProt A6QIG7 59-138), the C5aR blocking activity (in neutrophils), % of wt CHIPS1-121 (% of wt CHIPS1-121) is greater than 50; the Chemotaxis IC50 was determined as 49 nM; the IC50 of inhibition of calcium release, ratio to CHIPS1-121 (fold of the IC50 of CHIPS1-121) amounted to 2; the IC50 of inhibition of neutrophil migration towards C5a, ratio to CHIPS1-121 (fold of the IC50 of CHIPS1-121) came to 4. For the same substance, the concentration needed for 50% inhibition of calcium release (IC50), neutrophils stimulated with C5a was found to be 0.4 nM.

With “Wild-type CHIPS1-121 (Chemotaxis Inhibitory Protein of Staphylococcus aureus) (from UniProt A6QIG7 29-149)”, the Chemotaxis IC50 turned out to be 8.2 nM.

Source of the values: US20120071394A1.
